Data published in patent US12668821B2, “Enzymatic production of glucaric acid from glucuronic acid” (THE GOVERNING COUNCIL OF THE UNIVERSITY OF TORONTO, priority 2019, dated 2026).
Residue numbers refer to the chain shown, from its start. In names and notes the source's numbering stands. Entries after “also recorded” stand apart in the source; their conditions may differ. Like-named read-outs stand apart in the source and are kept apart here. One block for each molecule: values may come before it.

Legend:
[1] = Degradation of MeGlcA by H2O2 (HPAEC-PAD); assay type: physicochemical; conditions: up to 100 mM H2O2, 50 mM Tris pH 8.0, 40° C., 16 h
Protocol: FIG. 10: HPAEC-PAD analyses of H2O2 effects on AxyAgu115A activity and MeGlcA degradation.
AxyAgu115A (10 μg/mL) was incubated with 1% glucuronoxylan in 50 mM Tris buffer pH 8.0 in the presence of various H2O2 concentrations (0.01-100 mM). MeGlcA (1 mM) was also incubated with the same H2O2 concentrations. The reactions were kept in the dark at 40° C. for 16 h in a thermomixer (Eppendorf, USA). Catalase (200 μg/mL) was then added, and the reactions were kept incubating for another 30 min to remove H2O2 before HPAEC-PAD analysis.
Even at 200 mM H2O2, GOOX-Y300A retained more than 50% of its activity on glucose and 100% of its activity on cellobiose (Vuong et al., 2016).

[2] = Activity screening of GOOX variants and glucose oxidase on MeGlcA; assay type: biochemical; conditions: for nmol oxidized MeGlcA Mean: enzyme 16 nM, 37° C., 1 mM MeGlcA (FIG. 11 legend; b102 says 10 mM), 100 mM Tris pH 8.0 (GOOX variants) or 50 mM sodium acetate pH 5.0 (GO)
Protocol: (§1) FIG. 11: Activity screening of GOOX variants and glucose oxidase (GO) on GlcA and MeGlcA substrates. The enzymes (16 nM) were assayed at 37° C. with 10 mM GlcA and 1 mM MeGlcA in 100 mM Tris buffer pH 8.0 (for GOOX variants) or 50 mM sodium acetate pH 5.0 (for GO). The dotted line indicates the activity of GOOX-VN for MeGlcA for ease of comparison. “CtCBM22A-wtGOOX” and “CtCBM22A-Y300A” represent fusion proteins where the C terminus of the xylan-binding protein CtCBM22A (described in Vuong and Master, 2014) is fused to the N terminus GOOX.
(§2) The specific activity of GOOX-Y300A (16 nM) on MeGlcA and GlcA (1 mM) was measured in 50 mM Tris buffer pH 8.0 at 40° C. The amount of methyl glucaric acid was determined by measuring the release of H2O2 using a previously published colorimetric assay (Lin et al., 1991). The kinetics of GOOX-Y300A on these acidic sugars were measured at the same condition, but using up to 60 mM MeGlcA and GlcA and in 0.3 M Tris buffer pH 8.0.

[3] = MeGlcA oxidation by GOOX-Y300A, substrate consumption by HPAEC-PAD; assay type: biochemical; conditions: after 24 h, 300 mM Tris buffer, 60 mM MeGlcA, based on substrate consumption
Text: Reaction samples were vacuum-filtered using 0.22-μm, PVDF filter plates (Millipore, USA) with a Tecan liquid handler (500 mbar) (Tecan Trading AG, Switzerland). The flow-through was collected to Nunc™ 96-well polypropylene microplates (Thermo Fisher Scientific, USA), and covered with Nunc™ 96-well silicone cap mats. The presence of acidic sugars was detected using an ICS5000 HPAEC-PAD system (Dionex, USA) with a CarboPac PA1 (2×250 mm) analytical column (Dionex, USA). The HPAEC-PAD samples were eluted at 0.25 mL/min using NaOAc gradient (0-0.5 M) in 0.1 M NaOH. Chromatograms were analyzed using Chromeleon 7.2 (Dionex, USA).
In an attempt to improve the oxidation of GOOX-Y300A, the ionic strength of the Tris buffer was increased to 300 mM and the concentration of MeGlcA was brought up to 60 mM, higher than its Km. NSI-MS confirmed an increase in the intensity ratio of methyl glucaric acid over MeGlcA (FIG. 9). […] Provided that a similar xylan source was used, the conversion yield reported from the 3-enzyme pathway by Lee et al. (2016) (Lee et al., 2016a) was estimated ca. 20%, as determined by measuring NADH absorbance at 340 nm.

[4] = Activity screening of GOOX variants and glucose oxidase on GlcA; assay type: biochemical; conditions: enzyme 16 nM, 37° C., 10 mM GlcA (FIG. 11 legend; b102 says 100 mM), 100 mM Tris pH 8.0 (GOOX variants) or 50 mM sodium acetate pH 5.0 (GO)
Protocol: as §1, §2

[5] = Foumani et al., 2011; read-out: Km on glucose; cited from earlier work
[6] = 200 mM H2O2; cited from earlier work
[7] = 200 mM H2O2; cited from earlier work; remark: listed apart in the source
[8] = Kinetics of GOOX-Y300A on MeGlcA (H2O2 colorimetric assay); assay type: biochemical; conditions: up to 60 mM MeGlcA, 0.3 M Tris buffer pH 8.0, 40° C.
Protocol: as §2
There was a dose response for the production of methyl glucaric acid, as the relative abundance of methyl glucaric acid increased when the substrate concentration was raised from 1 mM to 10 mM.

Molecule: CO[C@@H]([C@H](O)[C@@H](O)C=O)[C@H](O)C(=O)O [MeGlcA, 4-O-methyl D-glucuronic acid]
loss of MeGlcA in the presence of H2O2 [1]: no loss of MeGlcA; also recorded: did not cause a loss of MeGlcA

B1: Y300A: GOOX variant with Y300A relative to SEQ ID NO: 1 (protein, listed as Sarocladium strictum)
chain: NSINACLAAADVEFHEEDSEGWEMDGTAFNLRVDYDPVAIAIPRSTEDIAAAVQCGLDAGVQISAKGGGHSYGSYGFGGEDGHLMLELDRMYRVSVDDDNVATIQGGARLGYTALELLDQGNRALTHGTCPAVGIGGHVLGGGYGFATHTHGLTLDWLVGATVVLADASIVHVSKTENADLFWALRGGGGGFAIVSEFEFNTFEAPEIITTYQVTTTWNRKQHVAGLKALQDWAENTMPRELSMRLEINANALNWEGNYFGNAKDLKKVLQPIMKKAGGKSTISKLVETDWYGQINTYLAGADLNITYNYDVHEYFYANSLTAPRLSDEAISAFVDYKFDNSSVRPGRGWWIQWDFHGGKNSALASHSNDETAYAHRDQLWLWQFYDNIYDYENNTSPYPESGFEFMQGFVATIEDTLPEDRKGKYFNYADTTLDKEEAQKLYWRGNLEKLQAIKAKYDPEDVFGNVVSVEPIA
modifications: (1)..(206) FAD-binding domain; (207)..(474) substrate-binding domain
specific activity on MeGlcA (in words) ([2]; among GOOX variants, FIG. 7): highest specific activity
nmol oxidized MeGlcA Mean [2]: 2.5 nmol
activity with MeGlcA as substrate (in words) ([2]; screening, compared with wtGOOX): improved activity over wtGOOX
efficiency on MeGlcA oxidation [3]: 62%
nmol oxidized GlcA Mean [4]: -0.03566 nmol
Km [5]: 8.1 mM
activity retained on cellobiose [6]: 100%
activity retained on glucose [7]: more than 50%
Km [8]: 21 ± 2 mM
kcat on MeGlcA [8]: 0.0152 ± 0.001 s⁻¹

B2: wtGOOX: Wild-type gluco-oligosaccharide oxidase from Sarocladium strictum, SEQ ID NO: 1, with C-terminal myc-tag and 6xHis-tag (protein, listed as Sarocladium strictum)
chain: B1 chain with A300Y
modifications: C-terminal myc-tag and 6xHis-tag; (1)..(206) FAD-binding domain; (207)..(474) substrate-binding domain
nmol oxidized MeGlcA Mean [2]: 0.9032 nmol
nmol oxidized GlcA Mean [4]: -0.04572 nmol

B3: W351F: GOOX variant with W351F relative to SEQ ID NO: 1 (protein, listed as Sarocladium strictum)
chain: B1 chain with A300Y, W351F
modifications: (1)..(206) FAD-binding domain; (207)..(474) substrate-binding domain
nmol oxidized MeGlcA Mean [2]: 0.08201 nmol
nmol oxidized GlcA Mean [4]: -0.04298 nmol

B4: Q384A: GOOX variant with Q384A relative to SEQ ID NO: 1 (protein, listed as Sarocladium strictum)
chain: B1 chain with A300Y, Q384A
modifications: (1)..(206) FAD-binding domain; (207)..(474) substrate-binding domain
nmol oxidized MeGlcA Mean [2]: 0.4569 nmol
nmol oxidized GlcA Mean [4]: -0.00914 nmol

The remaining lines, values ahead:

nmol oxidized MeGlcA Mean [2]: 0.9559 nmol
nmol oxidized GlcA Mean [4]: 0.02835 nmol
B5: N388S-V38A: GOOX variant with N388S and V38A relative to SEQ ID NO: 1 (protein, listed as Sarocladium strictum)
chain: B1 chain with V38A, A300Y, N388S
modifications: (1)..(206) FAD-binding domain; (207)..(474) substrate-binding domain

nmol oxidized MeGlcA Mean [2]: 0.8997 nmol
nmol oxidized GlcA Mean [4]: -0.01097 nmol
B6: Y72A: GOOX variant with Y72A relative to SEQ ID NO: 1 (protein, listed as Sarocladium strictum)
chain: B1 chain with Y72A, A300Y
modifications: (1)..(206) FAD-binding domain; (207)..(474) substrate-binding domain

nmol oxidized MeGlcA Mean [2]: 0.683 nmol
nmol oxidized GlcA Mean [4]: -0.02195 nmol
B7: Q384N: GOOX variant with Q384N relative to SEQ ID NO: 1 (protein, listed as Sarocladium strictum)
chain: B1 chain with A300Y, Q384N
modifications: (1)..(206) FAD-binding domain; (207)..(474) substrate-binding domain
